Source: US20240366624
Where a chain is given by its changes, count along the chain named.

B1: recombinant human ERO1α (endoplasmic reticulum oxidoreductase 1α), wild type (protein)
chain: EEQPPETAAQRCFCQVSGYLDDCTCDVETIDRFNNYRLFPRLQKLLESDYFRYYKVNLKRPCPFWNDISQCGRRDCAVKPCQSDEVPDGIKSASYKYSEEANNLIEECEQAERLGAVDESLSEETQKAVLQWTKHDDSSDNFCEADDIQSPEAEYVDLLLNPERYTGYKGPDAWKIWNVIYEENCFKPQTIKRPLNPLASGQGTSEENTFYSWLEGLCVEKRAFYRLISGLHASINVHLSARYLLQETWLEKKWGHNITEFQQRFDGILTEGEGPRRLKNLYFLYLIELRALSKVLPFFERPDFQLFTGNKIQDEENKMLLLEILHEIKSFPLHFDENSFFAGDKKEAHKLKEDFRLHFRNISRIMDCVGCFKCRLWGKLQTQGLGTALKILFSEKLIANMPESGPSYEFHLTRQEIVSLFNAFGRISTSVKELENFRNLLQNIH
B2: activity-null mutant ERO1α-Cys94Ser (protein)
chain: B1 chain with C71S

Molecular target: wild type STIM1, recombinant, Q13586
Sequence (Q13586 23-213): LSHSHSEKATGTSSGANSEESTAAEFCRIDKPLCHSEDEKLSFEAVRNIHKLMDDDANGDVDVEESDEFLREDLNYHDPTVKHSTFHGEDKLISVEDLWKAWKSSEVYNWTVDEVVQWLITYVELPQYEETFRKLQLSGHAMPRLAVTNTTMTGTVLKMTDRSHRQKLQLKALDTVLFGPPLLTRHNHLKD

| Protein | N-ethylmaleimide labeling on the Cys49 residue in STIM1 (mass spectrometry) |
| --- | --- |
| B1 | wtERO1α, but not mERO1α, decreased N-ethylmaleimide labeling on the Cys49 residue in STIM1 in a concentration-dependent manner |
| B2 | wtERO1α, but not mERO1α, decreased N-ethylmaleimide labeling on the Cys49 residue in STIM1 |
